The source of these data is patent US20120316071A1 (published 2012).

The target of assay [1] is T1, rHuman P-Cadherin/Fc Chimera, CF (R&D Systems Cat#861-PC) (human, UniProt P22223 108-654).
T1 construct: Bought recombinant Fc chimera; Fc part of the bought chimera not given
Briefly: ECL Multispot (MSD) assay, antigen spotted on plate, 10 nM Fab; blank spot 407.

In assay [2] the target is T2, rHuman HGF R/c-MET/Fc Chimera, CF (R&D Systems Cat#358-MT/CF) (human, UniProt P08581 25-932).
T2 construct: Bought recombinant Fc chimera; also called HGF R/Fc; hepatocyte growth factor receptor; Fc part of the bought chimera not given
Described as above.

Assay [3] concerns the target T3, Recombinant Human DLL4 (R&D Systems Cat#1506-D4/CF) (human, UniProt Q9NR61 27-524).
T3 construct: Bought recombinant protein; also called delta-like protein 4; rHuman DLL4
Described as above.

The target of assay [4] is T4, rHuman EGF R/Fc Chimera, CF (R&D Systems Cat#344-ER) (human, UniProt P00533 25-645).
T4 construct: Bought recombinant Fc chimera; also called epidermal growth factor receptor; Fc part of the bought chimera not given
The assay is described as above.

Assay [5] deals with T5, rHuman IGF-1 sR, CF (R&D Systems Cat#391-GR) (human, UniProt P08069 31-932).
T5 construct: Bought soluble receptor; also called insulin-like growth factor-1 soluble receptor
Described as above.

Assay [6] concerns the target T6, rHuman ErbB2/Fc Chimera, CF (R&D Systems Cat#1129-ER) (human, UniProt P04626 23-652).
T6 construct: Bought recombinant Fc chimera; also called human epidermal growth factor 2 receptor; Fc part of the bought chimera not given
The assay is described as above.

Assay [7] deals with T1, rHuman P-Cadherin/Fc Chimera, CF (R&D …). Briefly: ECL Multispot (MSD) assay, antigen spotted on plate, 10 nM Fab; blank spot 338.
For assay [8], the target named is T2, rHuman HGF R/c-MET/Fc Chimera, CF (R&D …). The assay is described as above.
Assay [9] addresses T3, Recombinant Human DLL4 (R&D Systems …). Described as above.
For assay [10], the target named is T4, rHuman EGF R/Fc Chimera, CF (R&D …). The assay is described as above.
The target in assay [11] is T5, rHuman IGF-1 sR, CF (R&D Systems …). The description is as above.
Assay [12] addresses T6, rHuman ErbB2/Fc Chimera, CF (R&D …). Described as above.
Assay [13] deals with T7, rHuman IGF-1 sR, CF (R&D Systems Cat#391-GR) (human, UniProt P08069 31-932).
T7 construct: Bought soluble receptor; also called insulin-like growth factor-1 soluble receptor
Briefly: ECL multispot (MSD), antigen spotted; blank spot of this well 271.

The target of assay [14] is T8, rHuman ErbB2/Fc Chimera, CF (R&D Systems Cat#1129-ER) (human, UniProt P04626 23-652).
T8 construct: Bought protein; also called human epidermal growth factor 2 receptor
The description is as above.

In assay [15] the target is T9, rHuman Erythropoietin R/Fc Chimera, CF (R&D Systems Cat#963-ER) (human, UniProt P19235 25-250).
T9 construct: Bought protein; also called EPO R; EPO R/Fc
T9 sequence (looked up): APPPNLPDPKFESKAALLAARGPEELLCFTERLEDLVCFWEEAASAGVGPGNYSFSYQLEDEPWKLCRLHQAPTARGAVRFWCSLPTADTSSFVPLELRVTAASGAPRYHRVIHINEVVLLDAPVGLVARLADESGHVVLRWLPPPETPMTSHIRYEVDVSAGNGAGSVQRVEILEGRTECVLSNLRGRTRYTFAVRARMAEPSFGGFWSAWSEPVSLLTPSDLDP
The description is as above.

Assay [16] addresses T10, Recombinant Human DLL4 (R&D Systems Cat#1506-D4/CF) (human, UniProt Q9NR61 27-524).
T10 construct: Bought recombinant protein; also called delta-like protein 4; rHuman DLL4
The description is as above.

The target of assay [17] is T11, rHuman EGF R/Fc Chimera, CF (R&D Systems Cat#344-ER) (human, UniProt P00533 25-645).
T11 construct: Bought protein; also called epidermal growth factor receptor
The assay is described as above.

The target in assay [18] is T12, rHuman Notch-1/Fc Chimera, CF (R&D Systems Cat#3647-TK) (human, UniProt P46531 19-526).
T12 construct: Bought protein
Described as above.

Assay [19] has as its target T13, rHuman P-Cadherin/Fc Chimera, CF (R&D Systems Cat#861-PC) (human, UniProt P22223 108-654).
T13 construct: Bought protein
Described as above.

Assay [20] has as its target T14, rHuman HGF R/c-MET/Fc Chimera, CF (R&D Systems Cat#358-MT/CF) (human, UniProt P08581 25-932).
T14 construct: Bought protein; also called HGF R/Fc; hepatocyte growth factor receptor
The assay is described as above.

Assay [21] addresses T15, rHuman CD44/Fc Chimera, CF (R&D Systems Cat#3660-CD) (human, UniProt P16070 21-220).
T15 construct: Bought protein
Described as above.

For assay [22], the target named is T16, Recombinant Human DLL4 (human, UniProt Q9NR61 27-524).
T16 construct: also called delta-like protein 4; rHuman DLL4
Briefly: ECL (MSD) multispot binding assay, DLL4 signal over blank spot.

Assay [23] addresses T16, Recombinant Human DLL4. The assay can be described thus: ECL (MSD) multispot binding assay, DLL4 spotted on plate, Fab in solution.
Assay [24] has as its target T17, rHuman P-Cadherin/Fc Chimera (human, UniProt P22223 108-654).
T17 construct: Bought from R&D Systems; not shown: Fc part of a bought chimera
The assay can be described thus: ECL Multispot (MSD) assay, antigens spotted on plate, 10 nM Fab; blank of this well 184.

The target of assay [25] is T18, rHuman EGF R/Fc Chimera (human, UniProt P00533 25-645).
T18 construct: Bought from R&D Systems; not shown: Fc part of a bought chimera
The assay is described as above.

Assay [26] addresses T19, rHuman IGF-1 sR (insulin-like growth factor-1 soluble receptor) (human, UniProt P08069 31-932).
T19 construct: Bought soluble receptor
The assay is described as above.

The target in assay [27] is T20, rHuman HGF R/c-MET/Fc Chimera (human, UniProt P08581 25-932).
T20 construct: Bought from R&D Systems; also called HGF R/Fc; not shown: Fc part of a bought chimera
The description is as above.

Assay [28] has as its target T21, rHuman ErbB2/Fc Chimera (human, UniProt P04626 23-652).
T21 construct: Bought from R&D Systems; not shown: Fc part of a bought chimera
The description is as above.

The target of assay [29] is T22, Recombinant Human DLL4 (delta-like protein 4) (human, UniProt Q9NR61 27-524).
T22 construct: Bought recombinant protein; also called rHuman DLL4
The assay is described as above.

Assay [30] has as its target T17, rHuman P-Cadherin/Fc Chimera. Briefly: ECL Multispot (MSD) assay, antigens spotted on plate, 10 nM Fab; blank of this well 254.
Assay [31] has as its target T18, rHuman EGF R/Fc Chimera. The assay is described as above.
In assay [32] the target is T19, rHuman IGF-1 sR (insulin-like growth …). The description is as above.
For assay [33], the target named is T20, rHuman HGF R/c-MET/Fc Chimera. Described as above.
Assay [34] deals with T21, rHuman ErbB2/Fc Chimera. Described as above.
The target of assay [35] is T22, Recombinant Human DLL4 (delta-like …). The description is as above.

Residue numbers refer to the chain shown, from its start. In names and notes the source's numbering stands.

T20 sequence (P08581 25-932, change not shown): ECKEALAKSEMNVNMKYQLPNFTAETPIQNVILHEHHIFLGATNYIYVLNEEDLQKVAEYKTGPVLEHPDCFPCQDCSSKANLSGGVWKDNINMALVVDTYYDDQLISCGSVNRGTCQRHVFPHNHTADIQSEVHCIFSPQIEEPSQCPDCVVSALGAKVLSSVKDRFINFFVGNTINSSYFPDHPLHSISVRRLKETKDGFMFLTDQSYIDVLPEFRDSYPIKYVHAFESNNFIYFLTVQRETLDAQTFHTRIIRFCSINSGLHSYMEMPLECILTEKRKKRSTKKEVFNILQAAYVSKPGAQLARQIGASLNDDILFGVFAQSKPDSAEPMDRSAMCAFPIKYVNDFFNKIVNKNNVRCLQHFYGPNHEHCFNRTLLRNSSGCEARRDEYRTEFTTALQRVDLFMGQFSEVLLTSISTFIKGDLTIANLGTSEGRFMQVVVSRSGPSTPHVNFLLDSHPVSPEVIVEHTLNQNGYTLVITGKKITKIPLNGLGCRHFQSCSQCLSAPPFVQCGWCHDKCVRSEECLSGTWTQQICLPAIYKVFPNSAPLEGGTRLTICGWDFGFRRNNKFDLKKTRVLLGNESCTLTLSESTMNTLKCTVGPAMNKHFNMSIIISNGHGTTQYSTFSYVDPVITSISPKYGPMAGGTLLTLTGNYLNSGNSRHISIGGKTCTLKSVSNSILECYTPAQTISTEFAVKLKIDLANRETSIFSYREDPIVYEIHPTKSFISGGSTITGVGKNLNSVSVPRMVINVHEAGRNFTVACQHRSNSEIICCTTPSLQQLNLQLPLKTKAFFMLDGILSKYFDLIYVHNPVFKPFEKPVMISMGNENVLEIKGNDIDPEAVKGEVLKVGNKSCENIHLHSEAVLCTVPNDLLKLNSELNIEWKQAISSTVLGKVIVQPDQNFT

B1: Fab VH1-46_IGHD6-6*01_IGHJ1*01 S102A/S103P/S104F/H111F & L6_IGKJ1*01 (Fab, V domains shown)
VH: QVQLVQSGAEVKKPGASVKVSCKASGYTFTSYYMHWVRQAPGQGLEWMGIINPSGGSTSYAQKFQGRVTMTRDTSTSTVYMELSSLRSEDTAVYYCAREEYAPFSAEYFQFWGQGTLVTVSS
VL: not shown
notes: Fab expressed in E. coli: VH joined to CH1 from Plasmid A (with His6 and Flag tags), VL joined to kappa CL from Plasmid C; also called APFF; H:APFF & L:wt
For the molecule B1, the ECL signal in assay [1] was found to be 277; in [2] it was 237; in assay [3] it was 126000; in [4], 329; in [5], 357; in assay [6], 292. Further, the ECL signal came to 399 in assay [7]; 332 in assay [8]; 149000 in assay [9]; 425 in [10]; 468 in [11]; 379 in assay [12].

B2: Fab VH1-46_IGHD6-6*01_IGHJ1*01 S102A/S103P/S104F (APF) & L6_IGKJ1*01 R91P (Fab, V domains shown)
VH: B1 VH with F111H
VL: EIVLTQSPATLSLSPGERATLSCRASQSVSSYLAWYQQKPGQAPRLLIYDASNRATGIPARFSGSGSGTDFTLTISSLEPEDFAVYYCQQPSNWPPWTFGQGTKVEIKR
notes: Fab made in E. coli: VH cloned into Plasmid A (CH1, His6 and Flag tags), VL into Plasmid C (kappa CL); also called APF / R91P
B2: the ECL signal in [13] is 199; in assay [14], 333; in assay [15] it was 275; in assay [16], 1280; in assay [17], 216; in [18], 228. Moreover, the ECL signal in assay [19] amounted to 296; in [20], 273; in assay [21] it was 252.

B3: Fab VH1-46_IGHD6-6*01_IGHJ1*01 S102A/S103P/S104F/H111F (APFF) & L6_IGKJ1*01 S92T (Fab, V domains shown)
VH: B1 VH
VL: B2 VL with P91R, S92T
notes: Fab from E. coli; VH in Plasmid A (CH1, His6 and Flag tags), VL in Plasmid C (kappa CL); also called APFF & S92T
For the molecule B3, in the assay with Recombinant Human DLL4 [22], the Signal/Blank worked out at 194. For the same molecule, the “ECL signal” value in the assay with Recombinant Human DLL4 [23] was 54100.

B4: Fab VH1-46_IGHD6-6*01_IGHJ1*01 S102A/S103P/S104F/H111F & L6_IGKJ1*01 (Fab, V domains shown)
VH: B1 VH
VL: not shown
notes: Fab made in E. coli; VH was cloned into Plasmid A (CH1, His6 and Flag tags) and VL into Plasmid C (kappa constant region); also called APFF; H:APFF & L:wt
On to B4, for which the ECL signal worked out at 240 in assay [24]; 409 with rHuman EGF R/Fc Chimera [25]; 173 in assay [26]; 263 in assay [27]; 322 with rHuman ErbB2/Fc Chimera [28]; 132000 in assay [29]. Also, the ECL signal in assay [30] worked out at 138; with rHuman EGF R/Fc Chimera [31], 209; in [32], 306; in [33], 176; in the assay with rHuman ErbB2/Fc Chimera [34] it was 351; in [35] it was 148000.
